Substrate: CC(C)[C@@H]1CC[C@@H](C)C[C@H]1O
Assay: LC-MS/MS (MRM) of menthol glucoside, Lineweaver-Burk
Assay type: biochemical, Bacillus licheniformis
Conditions: UDP-glucose as sugar donor (2 mM in the general protocol), 1 mM MgCl2, 50 mM Tris-HCl pH 8.0, 30 °C, 10 min

B1: BLC (Bacillus licheniformis DSM 13 = ATCC 14580) (protein)
chain: MGHKHIAIFNIPAHGHINPTLALTASLVKRGYRVTYPVTDEFVKAVEETGAEPLNYRSTLNIDPQQIRELMKNKKDMSQAPLMFIKEMEEVLPQLEALYENDKPDLILFDFMAMAGKLLAEKFGIEAVRLCSTYAQNEHFTFRSISEEFKIELTPEQEDALKNSNLPSFNFEDMFEPAKLNIVFMPRAFQPYGETFDERFSFVGPSLAKRKFQEKETPIISDSGRPVMLISLGTAFNAWPEFYHMCIEAFRDTKWQVIMAVGTTIDPESFDDIPENFSIHQRVPQLEILKKAELFITHGGMNSTMEGLNAGVPLVAVPQMPEQEITARRVEELGLGKHLQPEDTTAASLREAVSQTDGDPHVLKRIQDMQKHIKQAGGAEKAADEIEAFLAPAGVK
notes: His-tagged, pET28a (BamHI/XhoI), expressed in E. coli BL21(DE3), Ni-NTA purified; cloned as in Wu et al. 2012
B1 was tested. Which Km did it give?
The Km was 1740 ± 600 µM.

What about the kcat of the same protein?
Its kcat is 1.58 ± 0.0388 s⁻¹.

— publication PMC5574827, “Improvement of the pharmacological activity of menthol via enzymatic β-anomer-selective glycosylation” (AMB Express, 2017)
